B1: Smad2-W422A: W422A mutant of full-length Smad2; specific PI(4,5)P2 binding-compromised (protein)
chain: MSSILPFTPPVVKRLLGWKKSAGGSGGAGGGEQNGQEEKWCEKAVKSLVKKLKKTGRLDELEKAITTQNCNTKCVTIPSTCSEIWGLSTANTVDQWDTTGLYSFSEQTRSLDGRLQVSHRKGLPHVIYCRLWRWPDLHSHHELKAIENCEYAFNLKKDEVCVNPYHYQRVETPVLPPVLVPRHTEILTELPPLDDYTHSIPENTNFPAGIEPQSNYIPETPPPGYISEDGETSDQQLNQSMDTGSPAELSPTTLSPVNHSLDLQPVTYSEPAFWCSIAYYELNQRVGETFHASQPSLTVDGFTDPSNSERFCLGLLSNVNRNATVEMTRRHIGRGVRLYYIGGEVFAECLSDSAIFVQSPNCNQRYGWHPATVCKIPPGCNLKIFNNQEFAALLAQSVNQGFEAVYQLTRMCTIRMSFVKGAGAEYRRQTVTSTPCWIELHLNGPLQWLDKVLTQMGSPSVRCSSMS
modifications: left off: His6, N-terminal, state not stated
B2: Smad2-Y426A: Y426A mutant of full-length Smad2; specific PI(4,5)P2 binding-compromised (protein)
chain: MSSILPFTPPVVKRLLGWKKSAGGSGGAGGGEQNGQEEKWCEKAVKSLVKKLKKTGRLDELEKAITTQNCNTKCVTIPSTCSEIWGLSTANTVDQWDTTGLYSFSEQTRSLDGRLQVSHRKGLPHVIYCRLWRWPDLHSHHELKAIENCEYAFNLKKDEVCVNPYHYQRVETPVLPPVLVPRHTEILTELPPLDDYTHSIPENTNFPAGIEPQSNYIPETPPPGYISEDGETSDQQLNQSMDTGSPAELSPTTLSPVNHSLDLQPVTYSEPAFWCSIAYYELNQRVGETFHASQPSLTVDGFTDPSNSERFCLGLLSNVNRNATVEMTRRHIGRGVRLYYIGGEVFAECLSDSAIFVQSPNCNQRYGWHPATVCKIPPGCNLKIFNNQEFAALLAQSVNQGFEAVYQLTRMCTIRMSFVKGWGAEARRQTVTSTPCWIELHLNGPLQWLDKVLTQMGSPSVRCSSMS
modifications: left off: His6, N-terminal, state not stated
B3: Smad2-K420A: K420A mutant of full-length Smad2; predominantly TβRI binding-compromised (protein)
chain: MSSILPFTPPVVKRLLGWKKSAGGSGGAGGGEQNGQEEKWCEKAVKSLVKKLKKTGRLDELEKAITTQNCNTKCVTIPSTCSEIWGLSTANTVDQWDTTGLYSFSEQTRSLDGRLQVSHRKGLPHVIYCRLWRWPDLHSHHELKAIENCEYAFNLKKDEVCVNPYHYQRVETPVLPPVLVPRHTEILTELPPLDDYTHSIPENTNFPAGIEPQSNYIPETPPPGYISEDGETSDQQLNQSMDTGSPAELSPTTLSPVNHSLDLQPVTYSEPAFWCSIAYYELNQRVGETFHASQPSLTVDGFTDPSNSERFCLGLLSNVNRNATVEMTRRHIGRGVRLYYIGGEVFAECLSDSAIFVQSPNCNQRYGWHPATVCKIPPGCNLKIFNNQEFAALLAQSVNQGFEAVYQLTRMCTIRMSFVAGWGAEYRRQTVTSTPCWIELHLNGPLQWLDKVLTQMGSPSVRCSSMS
modifications: left off: His6, N-terminal, state not stated
B4: Smad2- R427A/R428A: double mutant of full-length Smad2; PI(4,5)P2 and TβRI binding-compromised (protein)
chain: MSSILPFTPPVVKRLLGWKKSAGGSGGAGGGEQNGQEEKWCEKAVKSLVKKLKKTGRLDELEKAITTQNCNTKCVTIPSTCSEIWGLSTANTVDQWDTTGLYSFSEQTRSLDGRLQVSHRKGLPHVIYCRLWRWPDLHSHHELKAIENCEYAFNLKKDEVCVNPYHYQRVETPVLPPVLVPRHTEILTELPPLDDYTHSIPENTNFPAGIEPQSNYIPETPPPGYISEDGETSDQQLNQSMDTGSPAELSPTTLSPVNHSLDLQPVTYSEPAFWCSIAYYELNQRVGETFHASQPSLTVDGFTDPSNSERFCLGLLSNVNRNATVEMTRRHIGRGVRLYYIGGEVFAECLSDSAIFVQSPNCNQRYGWHPATVCKIPPGCNLKIFNNQEFAALLAQSVNQGFEAVYQLTRMCTIRMSFVKGWGAEYAAQTVTSTPCWIELHLNGPLQWLDKVLTQMGSPSVRCSSMS
modifications: left off: His6, N-terminal, state not stated
B5: Smad2 WT: bacterially expressed full-length Smad2 wild-type (protein)
chain: MSSILPFTPPVVKRLLGWKKSAGGSGGAGGGEQNGQEEKWCEKAVKSLVKKLKKTGRLDELEKAITTQNCNTKCVTIPSTCSEIWGLSTANTVDQWDTTGLYSFSEQTRSLDGRLQVSHRKGLPHVIYCRLWRWPDLHSHHELKAIENCEYAFNLKKDEVCVNPYHYQRVETPVLPPVLVPRHTEILTELPPLDDYTHSIPENTNFPAGIEPQSNYIPETPPPGYISEDGETSDQQLNQSMDTGSPAELSPTTLSPVNHSLDLQPVTYSEPAFWCSIAYYELNQRVGETFHASQPSLTVDGFTDPSNSERFCLGLLSNVNRNATVEMTRRHIGRGVRLYYIGGEVFAECLSDSAIFVQSPNCNQRYGWHPATVCKIPPGCNLKIFNNQEFAALLAQSVNQGFEAVYQLTRMCTIRMSFVKGWGAEYRRQTVTSTPCWIELHLNGPLQWLDKVLTQMGSPSVRCSSMS
modifications: left off: His6, N-terminal, state not stated
notes: bacterially expressed full-length Smad2 wild-type
B6: EGFP-Smad2 WT: mouse EGFP-Smad2 wild type transfected into HeLa cells (protein, UniProt Q62432 2-467, looked up)
Mothers against …: SSILPFTPPVVKRLLGWKKSAGGSGGAGGGEQNGQEEKWCEKAVKSLVKKLKKTGRLDELEKAITTQNCNTKCVTIPSTCSEIWGLSTANTVDQWDTTGLYSFSEQTRSLDGRLQVSHRKGLPHVIYCRLWRWPDLHSHHELKAIENCEYAFNLKKDEVCVNPYHYQRVETPVLPPVLVPRHTEILTELPPLDDYTHSIPENTNFPAGIEPQSNYIPETPPPGYISEDGETSDQQLNQSMDTGSPAELSPTTLSPVNHSLDLQPVTYSEPAFWCSIAYYELNQRVGETFHASQPSLTVDGFTDPSNSERFCLGLLSNVNRNATVEMTRRHIGRGVRLYYIGGEVFAECLSDSAIFVQSPNCNQRYGWHPATVCKIPPGCNLKIFNNQEFAALLAQSVNQGFEAVYQLTRMCTIRMSFVKGWGAEYRRQTVTSTPCWIELHLNGPLQWLDKVLTQMGSPSVRCSSMS
modifications: EGFP fusion
notes: mouse EGFP-Smad2 wild type transfected into HeLa cells

Columns and labels:
[1] = SPR membrane binding to POPC/POPS vesicles; settings: for binding to POPC/POPS (80:20): RU/RUmax, 100 nM protein
Source text: It has been generally thought that Smad2 and Smad3 are targeted to the activated TGF-β signaling complex by direct interaction with TβRI ([1], [2]) or via SARA ([7]). However, it has been shown that many cytosolic proteins that are targeted to membrane proteins or membrane-anchored signaling complexes have affinity for membrane lipids ([14]), phosphoinositides (PtdInsPs) in particular, and that their membrane recruitment is mediated by coincident lipid–protein and protein–protein interactions ([15], [16]). For most of these proteins, their PtdInsP specificity directs their membrane targeting behaviors: e.g., PI(4,5)P2-specific proteins are recruited to PM where the highest concentration of PI(4,5)P2 is found, whereas PI(3)P-specific proteins are targeted to PI(3)P-rich EEs ([17], [18]). To resolve uncertainty about the functional location of the activated TGF-β signaling complex, we thus explored the possibility that lipid-binding activity of Smad2 may play a role in specific targeting of Smad2 to the active TGF-β receptor complex either at the PM or at EEs. Lipid-binding activity of Smad proteins has not been reported to date. We thus measured the binding of bacterially expressed Smad2 to large unilamellar vesicles (LUVs) containing various lipids by surface plasmon resonance (SPR) analysis ([19], [20]). Lipid selectivity determined by SPR analysis is typically reported as the relative resonance unit (RU) values for different lipids at a given protein concentration ([21], [22]). Although simple and intuitive, this type of analysis can sometimes yield misleading and erroneous results because some proteins show widely different RU values when bound to different lipid surfaces. Thus, a more reliable parameter that represents the fraction of the membrane bound protein molecules at a given protein concentration would be a normalized value of RU/RUmax where RUmax indicates the maximal RU value when a given lipid surface is saturated with the protein molecules. We thus estimated RUmax for different lipid species by employing the highest protein concentration experimentally feasible (e.g., 1 μM) and determined RU/RUmax for different lipids at the protein concentration that allows robust comparison (e.g., 100 nM). Once the lipid selectivity has been determined by this semiquantitative approach, we then rigorously determined and compared Kd values for selected lipids for more accurate quantitative determination of lipid selectivity.
Figure 1 Membrane-binding properties of Smad2 FL protein and MH2 domain determined by SPR analysis.A, PtdInsP selectivity of Smad2-FL determined using POPC/POPS/PtdInsP (77:20:3 in mole ratio) LUVs coated on the L1 sensor chip. The protein concentration was 100 nM. PIP3 indicates PI(3,4,5)P3. B, determination of Kd for binding of Smad2 FL to different LUVs. The protein concentration was varied from 0 to 500 nM. C, PI(4,5)P2 concentration dependence of membrane binding of Smad2-FL determined using POPC/POPS/PI(4,5)P2 (77-x:20:x, x = 0–5 mol%) LUVs. The protein concentration was 100 nM. D, PtdInsP selectivity of the Smad2 MH2 domain determined using POPC/POPS/PtdInsP (77:20:3 in mole ratio) LUVs. The protein concentration was 100 nM. Normalized RU values (RU/RUmax) were used for all figures but (C) for more accurate determination of PtdInsP selectivity. RUmax values determined for different vesicles at 1 μM Smad2 were: 280 ± 20 for POPC/POPS/PI(4,5)P2 (77:20:3), 370 ± 10 for POPC/POPS/PI(3,4)P2 (77:20:3), 400 ± 15 for POPC/POPS/PI(3,4,5)P3 (or PIP3) (77:20:3), 400 ± 20 for POPC/POPS/PI(3)P (77:20:3), and 380 ± 20 for POPC/POPS (80:20). Only the association phases of the sensorgrams are shown and used for further analysis. Each set of sensorgrams shown in A and D are representatives of >5 independent measurements. Data points shown in B and C are the average ±S.D. values from triplicate measurements. […]

SPR PtdInsP selectivity = assay type: binding; settings: RU/RUmax, 100 nM protein
Source text: It has been generally thought that Smad2 and Smad3 are targeted to the activated TGF-β signaling complex by direct interaction with TβRI ([1], [2]) or via SARA ([7]). However, it has been shown that many cytosolic proteins that are targeted to membrane proteins or membrane-anchored signaling complexes have affinity for membrane lipids ([14]), phosphoinositides (PtdInsPs) in particular, and that their membrane recruitment is mediated by coincident lipid–protein and protein–protein interactions ([15], [16]). […] We thus measured the binding of bacterially expressed Smad2 to large unilamellar vesicles (LUVs) containing various lipids by surface plasmon resonance (SPR) analysis ([19], [20]). Lipid selectivity determined by SPR analysis is typically reported as the relative resonance unit (RU) values for different lipids at a given protein concentration ([21], [22]). […] We thus estimated RUmax for different lipid species by employing the highest protein concentration experimentally feasible (e.g., 1 μM) and determined RU/RUmax for different lipids at the protein concentration that allows robust comparison (e.g., 100 nM). Once the lipid selectivity has been determined by this semiquantitative approach, we then rigorously determined and compared Kd values for selected lipids for more accurate quantitative determination of lipid selectivity. […]

HeLa cells = assay: Confocal imaging of Smad2 localization; assay type: cell-based
Description: Supplemental Fig. S1. Confocal images of endogenous Smad2 and exogenously expressed EGFP-Smad2 in HeLa cells before (A) and 10 min after (B) TGF-β stimulation.
Endogenous Smad2 images were obtained by immunostaining using the Smad2-specific antibody. 10 ng/ml TGF-β was used for stimulation. Scale bars indicate 10 μm.
Supplemental Fig. S2. Suppression of endogenous Smad2 expression in HeLa cells by siRNA.
Western blot analysis showing that expression of endogenous Smad2 in HeLa cells was successfully suppressed by siRNA. 30 nM siRNA-3 was routinely used for knockdown experiments. For re-introduction of mouse Smad2 to these cells, see Fig. 5A. Glyceraldehyde 3-phosphate dehydrogenase (GAPDH) was used as a gel loading control. […]

Molecule	binding to POPC/POPS (80:20) ([1]; SPR)	also measured
B1	much less effects on binding	–
B2	much less effects on binding	–
B3	modestly and similarly reduced binding to both vesicles	–
B4	much less effects on binding	–
B5	–	PtdInsP selectivity (SPR PtdInsP selectivity): significant degree of selectivity for POPC/POPS/PI(4,5)P2 (77:20:3) over other PtdInsP-containing vesicles; RUmax ([1]; POPC/POPS (80:20), 1 μM Smad2): 380 ± 20; Kd ([1]; SPR, L1 chip, 23 °C, 20 mM Tris, pH 7.4, 0.16 M NaCl, POPC/POPS (80:20), average ±S.D., n = 3, read-out: Kd for lipid binding, PC/PS): 0.56 ± 0.15 µM
B6	–	localization in unstimulated cells (HeLa cells): mostly distributed in the cytoplasm with little prelocalization to the PM

— article PMC8567202, “Phosphoinositide-binding activity of Smad2 is essential for its function in TGF-β signaling” (The Journal of Biological Chemistry, 2021)
